Laboratory results as given in patent publication US10500249B2, “Compositions and methods for preventing or treating diseases, conditions, or processes characterized by aberrant fibroblast proliferation and extracellular matrix deposition” (MOERAE MATRIX, INC., priority 2014, dated 2019).

Assays:
Assay in all cases: Kinase Profiling Assay
Assay type in all cases: biochemical
Conditions in all cases: 100 μM
Lck (h) activated = Lck (h) activated (Homo sapiens, UniProt P06239)
Outline: (§1)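 Duplicate wells; [radiolabeled] ATP phosphate onto cationic substrate; filter capture (negatively charged membrane); scintillation count; % of 100% activity control. Selectivity screen of MK2 peptide inhibitors, 266 human kinases.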

Fer (h) = Fer (h) (Homo sapiens, UniProt P16591)
Sequence of Fer (h) (P16591 whole entry): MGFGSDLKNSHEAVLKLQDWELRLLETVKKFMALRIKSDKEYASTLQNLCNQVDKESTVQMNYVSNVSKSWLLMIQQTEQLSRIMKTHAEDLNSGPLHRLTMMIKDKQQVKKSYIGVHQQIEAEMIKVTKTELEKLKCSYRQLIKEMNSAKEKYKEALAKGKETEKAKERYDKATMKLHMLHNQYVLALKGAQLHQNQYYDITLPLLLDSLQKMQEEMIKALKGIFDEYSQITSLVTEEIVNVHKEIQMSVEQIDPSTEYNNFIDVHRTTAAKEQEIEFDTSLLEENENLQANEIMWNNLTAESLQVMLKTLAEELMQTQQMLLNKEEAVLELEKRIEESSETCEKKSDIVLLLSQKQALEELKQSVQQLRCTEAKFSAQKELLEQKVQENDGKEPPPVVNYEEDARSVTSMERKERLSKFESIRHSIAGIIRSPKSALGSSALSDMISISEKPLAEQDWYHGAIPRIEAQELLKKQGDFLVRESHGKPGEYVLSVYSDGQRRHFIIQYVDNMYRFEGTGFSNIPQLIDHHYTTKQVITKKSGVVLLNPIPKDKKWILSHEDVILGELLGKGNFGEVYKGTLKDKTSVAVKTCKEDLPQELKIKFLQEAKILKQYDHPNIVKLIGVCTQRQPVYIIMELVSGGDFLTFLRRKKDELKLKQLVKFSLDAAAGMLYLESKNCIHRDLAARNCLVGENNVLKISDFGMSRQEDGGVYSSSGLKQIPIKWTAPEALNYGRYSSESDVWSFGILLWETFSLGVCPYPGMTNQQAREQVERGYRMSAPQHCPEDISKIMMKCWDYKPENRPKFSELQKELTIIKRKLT
Outline: as §1

MSK2 (h) = molecular target: T1, MSK2 (h) (Homo sapiens, UniProt O75676)
T1 construct: purchased Millipore
T1 sequence (O75676 whole entry): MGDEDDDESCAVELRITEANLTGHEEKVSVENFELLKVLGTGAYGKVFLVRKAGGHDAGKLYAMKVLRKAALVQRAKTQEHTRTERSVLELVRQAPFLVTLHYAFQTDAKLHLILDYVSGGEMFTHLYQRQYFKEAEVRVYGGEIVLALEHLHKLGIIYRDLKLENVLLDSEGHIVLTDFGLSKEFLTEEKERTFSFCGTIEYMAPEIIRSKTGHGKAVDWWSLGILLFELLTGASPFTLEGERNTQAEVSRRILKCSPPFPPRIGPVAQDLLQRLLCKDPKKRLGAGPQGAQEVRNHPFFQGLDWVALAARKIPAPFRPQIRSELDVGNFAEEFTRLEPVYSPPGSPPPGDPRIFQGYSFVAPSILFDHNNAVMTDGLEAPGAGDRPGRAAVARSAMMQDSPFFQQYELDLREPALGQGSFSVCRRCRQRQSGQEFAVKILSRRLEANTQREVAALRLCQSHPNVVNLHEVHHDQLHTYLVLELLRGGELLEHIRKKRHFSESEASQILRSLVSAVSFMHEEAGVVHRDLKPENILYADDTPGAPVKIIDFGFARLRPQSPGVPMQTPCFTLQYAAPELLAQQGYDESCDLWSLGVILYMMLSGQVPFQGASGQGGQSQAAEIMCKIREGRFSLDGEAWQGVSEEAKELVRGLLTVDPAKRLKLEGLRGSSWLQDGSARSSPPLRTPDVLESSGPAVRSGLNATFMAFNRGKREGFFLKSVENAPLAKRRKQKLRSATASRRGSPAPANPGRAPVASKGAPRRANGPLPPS
Outline: as §1

PDGFRβ (h) = molecular target: T2, PDGFRβ (h) (Homo sapiens, UniProt P09619)
T2 construct: purchased Millipore
T2 sequence (P09619 33-1106): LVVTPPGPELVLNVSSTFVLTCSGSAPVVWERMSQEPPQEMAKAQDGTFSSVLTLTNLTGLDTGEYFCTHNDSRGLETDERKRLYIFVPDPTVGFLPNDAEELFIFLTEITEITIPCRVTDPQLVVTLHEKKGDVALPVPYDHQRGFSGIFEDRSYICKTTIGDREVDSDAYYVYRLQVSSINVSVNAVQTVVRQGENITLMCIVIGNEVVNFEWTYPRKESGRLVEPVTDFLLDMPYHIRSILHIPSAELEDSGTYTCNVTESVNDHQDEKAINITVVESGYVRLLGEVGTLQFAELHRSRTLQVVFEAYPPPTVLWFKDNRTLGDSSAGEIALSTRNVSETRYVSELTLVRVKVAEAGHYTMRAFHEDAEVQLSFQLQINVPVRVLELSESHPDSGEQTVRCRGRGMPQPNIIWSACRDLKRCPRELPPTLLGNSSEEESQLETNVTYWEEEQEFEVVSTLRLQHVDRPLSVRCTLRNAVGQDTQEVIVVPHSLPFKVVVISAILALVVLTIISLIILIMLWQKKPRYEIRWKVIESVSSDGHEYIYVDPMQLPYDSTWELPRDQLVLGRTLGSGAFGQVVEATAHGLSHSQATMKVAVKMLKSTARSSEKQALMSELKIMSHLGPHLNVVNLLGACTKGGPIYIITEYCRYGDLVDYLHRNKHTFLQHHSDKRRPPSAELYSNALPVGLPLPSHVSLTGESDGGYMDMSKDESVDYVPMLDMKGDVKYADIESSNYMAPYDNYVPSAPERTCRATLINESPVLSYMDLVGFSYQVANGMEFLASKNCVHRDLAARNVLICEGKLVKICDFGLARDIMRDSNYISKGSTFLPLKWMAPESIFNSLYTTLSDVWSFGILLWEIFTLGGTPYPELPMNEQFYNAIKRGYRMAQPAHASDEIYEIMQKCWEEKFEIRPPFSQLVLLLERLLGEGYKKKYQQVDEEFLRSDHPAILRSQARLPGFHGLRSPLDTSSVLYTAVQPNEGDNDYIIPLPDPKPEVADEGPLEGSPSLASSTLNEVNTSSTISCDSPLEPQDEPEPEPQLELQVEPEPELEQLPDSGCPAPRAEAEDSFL
Outline: as §1

BRK (h) = BRK (h) (Homo sapiens, UniProt Q13882)
Sequence of BRK (h) (Q13882 whole entry): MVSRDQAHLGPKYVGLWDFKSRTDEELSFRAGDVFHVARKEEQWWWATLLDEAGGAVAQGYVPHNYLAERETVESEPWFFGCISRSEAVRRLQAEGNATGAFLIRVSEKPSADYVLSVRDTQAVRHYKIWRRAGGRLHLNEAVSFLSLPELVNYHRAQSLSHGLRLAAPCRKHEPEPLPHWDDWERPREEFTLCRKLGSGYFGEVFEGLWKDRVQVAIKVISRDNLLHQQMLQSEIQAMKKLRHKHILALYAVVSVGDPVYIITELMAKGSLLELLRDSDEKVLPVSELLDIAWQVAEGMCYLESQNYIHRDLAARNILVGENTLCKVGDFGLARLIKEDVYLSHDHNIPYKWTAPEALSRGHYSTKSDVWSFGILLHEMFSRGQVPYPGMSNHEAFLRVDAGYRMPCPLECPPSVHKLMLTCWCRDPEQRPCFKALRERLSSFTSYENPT
Outline: as §1

CaMKIIγ (h) = molecular target: T3, CaMKIIγ (h) (Homo sapiens, UniProt Q13555)
T3 construct: purchased Millipore
T3 sequence (Q13555 whole entry): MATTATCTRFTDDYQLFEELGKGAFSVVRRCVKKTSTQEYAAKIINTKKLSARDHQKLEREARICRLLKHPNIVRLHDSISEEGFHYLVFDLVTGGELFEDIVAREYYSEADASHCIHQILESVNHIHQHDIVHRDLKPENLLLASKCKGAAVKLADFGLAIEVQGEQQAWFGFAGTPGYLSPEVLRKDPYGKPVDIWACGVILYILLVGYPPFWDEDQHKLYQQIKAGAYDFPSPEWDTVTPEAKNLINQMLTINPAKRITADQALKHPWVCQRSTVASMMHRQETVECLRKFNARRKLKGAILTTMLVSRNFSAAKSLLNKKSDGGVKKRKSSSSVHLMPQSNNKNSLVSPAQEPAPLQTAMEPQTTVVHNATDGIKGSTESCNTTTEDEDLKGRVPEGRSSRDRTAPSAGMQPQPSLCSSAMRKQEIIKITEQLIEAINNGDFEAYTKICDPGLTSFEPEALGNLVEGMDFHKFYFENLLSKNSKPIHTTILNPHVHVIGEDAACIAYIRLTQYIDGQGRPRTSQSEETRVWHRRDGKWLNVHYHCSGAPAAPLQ
Outline: as §1

Mer (h) = molecular target: T4, Mer (h) (Homo sapiens, UniProt Q12866)
T4 sequence (Q12866 21-999): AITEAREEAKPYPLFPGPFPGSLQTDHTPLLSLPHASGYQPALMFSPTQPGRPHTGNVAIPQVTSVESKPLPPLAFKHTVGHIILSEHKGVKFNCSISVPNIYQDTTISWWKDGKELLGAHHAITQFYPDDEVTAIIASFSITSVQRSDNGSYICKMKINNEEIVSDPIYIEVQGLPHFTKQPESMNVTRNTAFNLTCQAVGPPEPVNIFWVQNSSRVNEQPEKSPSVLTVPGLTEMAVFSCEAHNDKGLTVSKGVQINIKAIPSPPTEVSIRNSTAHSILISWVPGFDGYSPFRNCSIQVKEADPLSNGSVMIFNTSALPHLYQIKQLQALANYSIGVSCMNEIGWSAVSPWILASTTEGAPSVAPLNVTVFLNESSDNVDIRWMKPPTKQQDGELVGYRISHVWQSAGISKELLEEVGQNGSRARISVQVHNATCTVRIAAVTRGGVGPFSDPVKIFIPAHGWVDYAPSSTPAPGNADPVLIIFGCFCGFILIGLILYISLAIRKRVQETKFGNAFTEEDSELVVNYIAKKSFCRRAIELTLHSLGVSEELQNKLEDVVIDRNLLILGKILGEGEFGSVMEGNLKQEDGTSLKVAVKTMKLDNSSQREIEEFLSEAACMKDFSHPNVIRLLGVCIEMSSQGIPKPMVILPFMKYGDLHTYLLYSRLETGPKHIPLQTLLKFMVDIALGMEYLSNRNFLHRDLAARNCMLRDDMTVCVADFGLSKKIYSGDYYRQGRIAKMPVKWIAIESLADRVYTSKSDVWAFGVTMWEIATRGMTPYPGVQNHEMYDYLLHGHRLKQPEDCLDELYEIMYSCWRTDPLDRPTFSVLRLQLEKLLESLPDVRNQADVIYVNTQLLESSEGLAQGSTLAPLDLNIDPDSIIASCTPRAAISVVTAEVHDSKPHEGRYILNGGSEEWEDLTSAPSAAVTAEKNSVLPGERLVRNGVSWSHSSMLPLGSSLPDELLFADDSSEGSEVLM
Outline: as §1

PAK2 (h) = molecular target: T5, PAK2 (h) (Homo sapiens, UniProt Q13177)
T5 construct: purchased Millipore
T5 sequence (Q13177 whole entry): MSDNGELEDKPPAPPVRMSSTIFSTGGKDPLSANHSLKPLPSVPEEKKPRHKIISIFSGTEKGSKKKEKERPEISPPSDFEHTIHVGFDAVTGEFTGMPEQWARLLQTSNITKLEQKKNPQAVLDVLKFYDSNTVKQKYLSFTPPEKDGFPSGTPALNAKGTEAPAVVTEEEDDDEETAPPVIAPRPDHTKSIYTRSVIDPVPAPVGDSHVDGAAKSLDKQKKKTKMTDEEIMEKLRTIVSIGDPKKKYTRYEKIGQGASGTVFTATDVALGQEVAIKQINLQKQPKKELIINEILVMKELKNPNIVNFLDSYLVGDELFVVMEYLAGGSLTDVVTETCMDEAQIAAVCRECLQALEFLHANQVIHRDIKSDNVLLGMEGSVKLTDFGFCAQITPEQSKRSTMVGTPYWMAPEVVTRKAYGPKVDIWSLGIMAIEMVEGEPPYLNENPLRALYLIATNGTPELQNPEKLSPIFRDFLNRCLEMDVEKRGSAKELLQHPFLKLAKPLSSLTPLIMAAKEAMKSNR
Outline: as §1

p70S6K (h) = molecular target: T6, p70S6K (h) (Homo sapiens, UniProt P23443)
T6 construct: purchased Millipore
Outline: as §1

SGK2 (h) = molecular target: T7, SGK2 (h) (Homo sapiens, UniProt Q9HBY8)
T7 sequence (Q9HBY8 1-367): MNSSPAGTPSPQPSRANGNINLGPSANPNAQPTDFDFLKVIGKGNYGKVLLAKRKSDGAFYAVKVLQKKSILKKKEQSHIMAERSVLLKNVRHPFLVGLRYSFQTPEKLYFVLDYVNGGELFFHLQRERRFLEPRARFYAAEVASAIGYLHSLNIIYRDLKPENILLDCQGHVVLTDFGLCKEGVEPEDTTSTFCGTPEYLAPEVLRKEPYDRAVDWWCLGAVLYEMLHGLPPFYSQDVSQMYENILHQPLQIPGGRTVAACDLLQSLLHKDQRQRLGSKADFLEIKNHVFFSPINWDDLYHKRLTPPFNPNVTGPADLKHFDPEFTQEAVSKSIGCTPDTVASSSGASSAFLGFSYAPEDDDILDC
Outline: as §1

DDR2 (h) = molecular target: T8, DDR2 (h) (Homo sapiens, UniProt Q16832)
T8 construct: purchased Millipore
T8 sequence (Q16832 22-855): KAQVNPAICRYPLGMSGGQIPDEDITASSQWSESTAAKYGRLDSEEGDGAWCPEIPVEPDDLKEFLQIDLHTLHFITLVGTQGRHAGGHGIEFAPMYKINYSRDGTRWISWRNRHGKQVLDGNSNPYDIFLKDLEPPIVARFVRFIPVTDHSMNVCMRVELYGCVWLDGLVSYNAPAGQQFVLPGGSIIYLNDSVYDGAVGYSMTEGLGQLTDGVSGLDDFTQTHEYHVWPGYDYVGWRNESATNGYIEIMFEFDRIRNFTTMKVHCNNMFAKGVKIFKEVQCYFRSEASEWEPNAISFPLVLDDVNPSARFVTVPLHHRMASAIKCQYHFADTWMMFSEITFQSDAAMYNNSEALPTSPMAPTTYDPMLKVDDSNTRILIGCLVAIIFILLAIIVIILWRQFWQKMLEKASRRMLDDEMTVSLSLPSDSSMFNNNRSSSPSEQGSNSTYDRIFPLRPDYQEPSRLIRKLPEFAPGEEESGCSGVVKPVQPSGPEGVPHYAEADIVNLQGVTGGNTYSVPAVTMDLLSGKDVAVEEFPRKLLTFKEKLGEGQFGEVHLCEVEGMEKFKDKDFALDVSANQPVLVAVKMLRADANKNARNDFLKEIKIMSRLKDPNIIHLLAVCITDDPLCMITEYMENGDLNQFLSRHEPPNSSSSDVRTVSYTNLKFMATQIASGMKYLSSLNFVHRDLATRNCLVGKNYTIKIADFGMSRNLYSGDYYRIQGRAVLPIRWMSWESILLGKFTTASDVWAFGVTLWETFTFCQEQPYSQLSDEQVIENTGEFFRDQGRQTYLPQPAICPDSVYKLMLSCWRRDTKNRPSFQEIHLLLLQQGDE
Outline: as §1

Sequence of Lck (h) activated (P06239 whole entry): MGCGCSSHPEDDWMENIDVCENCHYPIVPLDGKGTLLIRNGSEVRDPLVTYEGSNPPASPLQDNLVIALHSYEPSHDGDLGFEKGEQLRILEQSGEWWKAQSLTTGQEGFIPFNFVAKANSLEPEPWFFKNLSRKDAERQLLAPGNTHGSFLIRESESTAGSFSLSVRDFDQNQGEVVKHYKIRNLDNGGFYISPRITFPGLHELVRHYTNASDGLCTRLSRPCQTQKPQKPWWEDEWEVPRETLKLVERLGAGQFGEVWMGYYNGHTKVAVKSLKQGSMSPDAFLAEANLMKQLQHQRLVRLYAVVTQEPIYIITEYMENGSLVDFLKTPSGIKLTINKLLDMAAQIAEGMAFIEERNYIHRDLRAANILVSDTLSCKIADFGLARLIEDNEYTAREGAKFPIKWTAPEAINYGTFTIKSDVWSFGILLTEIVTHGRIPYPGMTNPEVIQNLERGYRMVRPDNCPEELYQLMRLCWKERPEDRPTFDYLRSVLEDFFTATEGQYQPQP

Row | Sequence | % activity (Lck (h) activated) [%] | % activity (Fer (h)) [%] | % activity (MSK2 (h)) [%] | % activity (PDGFRβ (h)) [%] | % activity (BRK (h)) [%] | % activity (CaMKIIγ (h)) [%] | % activity (Mer (h)) [%] | % activity (PAK2 (h)) [%] | % activity (p70S6K (h)) [%] | % activity (SGK2 (h)) [%] | % activity (DDR2 (h)) [%]
1 | FAKLAARLYRKALARQLGVAA [MMI-0300] | 243 | 130 | 56 | 81 | 35 | 5 | 52 | 65 | 35 | 56 | 94
2 | HRRIKAWLKKIKALARQLGVAA (Mammalian) [MMI-0500] | 76 | 196 | 14 | 40 | 41 | 3 | 17 | 44 | 3 | −1 | 79
3 | KAFAKLAARLYRKALARQLGVAA [MMI-0400] | 216 | 108 | 52 | 53 | 18 | 3 | 50 | 59 | 33 | 98 | 95
4 | YARAAARQARAKALNRQLGVA (Mammalian) [MMI-0200] | 90 | 101 | 88 | 137 | 127 | 94 | 90 | 69 | 84 |  | 
